Results as given in paper PMC5101663.

Biological target: Acinetobacter phage AP205 SpyTag-VLP (one SpyTag per VLP subunit) (Acinetobacter phage AP205)
Experiment: covalent conjugation shown by reduced SDS-PAGE with densitometry; antigen and Spy-VLP mixed at 1.5:1 molar ratio (antigen per VLP subunit), overnight at 4 °C in PBS, 0.2% Polysorbate 80, pH 7.2; covalent SpyTag/SpyCatcher bond

HIS-CSP-SpyCatcher antigen (from UniProt Q7K740 25-383)
stoichiometry N (CSP antigens per VLP): 112
